# T1: SynRuvC E75A (Synechocystis sp. PCC6803, UniProt Q55506 1-167, E75A)
# T1 sequence: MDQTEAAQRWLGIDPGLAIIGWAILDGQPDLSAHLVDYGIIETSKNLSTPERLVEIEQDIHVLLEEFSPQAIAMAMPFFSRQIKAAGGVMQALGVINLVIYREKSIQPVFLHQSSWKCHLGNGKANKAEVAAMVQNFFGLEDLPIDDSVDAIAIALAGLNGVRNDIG
# B1: 4Jh (structured_DNA)
# DNA 1: GCAATTCGATCGTTGACATCTCGCGTGCTCGGTCAATCGGCAGATGCGGAGTGAAGTTCCAACGTTCGGC
# DNA 2: CCTGCAGGATGGTAGGACGGCCTCGCAATCCCGATTGACCGAGCACGCGAGATGTCAACGATCGAATTGC
# DNA 3: GCCGAACGTTGGAACTTCACTCCGCATCTGCCGATTGACCGAGTGGCGTGTTTCTGGTGGTTCCTAGGTC
# DNA 4: GACCTAGGAACCACCAGAAACACGCCACTCGGTCAATCGGGATTGCGAGGCCGTCCTACCATCCTGCAGG
# Molecular target: T1, SynRuvC E75A
# Test: EMSA; EMSA: 50 nM 5'-FAM DNA, 0-2000 nM protein, 20 mM HEPES pH 7.5, 50 mM NaCl, 1 mM DTT, 10% DMSO, 1% glycerol, no metal listed, 37 C 60 min; 5% native PAGE in 1x TAE
# Conditions: protein: recombinant; tags: His-SUMO N-terminal, removed (purified as WT); chain copies: 2; label: 5'-FAM on one strand; four-way junction, 13 bp homologous core
binder,measurement,value
B1,binding result,no binding
